Test results: paper PMC9653487, “Structural basis for mechanotransduction in a potassium-dependent mechanosensitive ion channel” (Nature Communications, 2022)

Tests used:
[1] = molecular target: the molecule itself; test: cryo-EM structure; single-particle cryo-EM of EcMscK G924S in 0.02% GDN, 20 mM Tris-HCl pH 8.0, 150 mM NaCl or 150 mM KCl (datasets combined); refined with C7 symmetry; closed, intermediate and open classes
[2] = molecular target: the molecule itself; test: cryo-EM structure; single-particle cryo-EM of WT EcMscK in 0.02% GDN, 20 mM Tris-HCl pH 8.0, 150 mM NaCl; refined with C7 symmetry

| Protein | stoichiometry N [1] | binding result [2] |
| --- | --- | --- |
| E. coli MscK (EcMscK) G924S gain-of-function mutant channel (natural protein, UniProt P77338 34-1120, looked up, E. coli mechanosensitive channel MscK, 1120 amino acids, full length, with the point mutation G924S made by site-directed mutagenesis; Homoheptamer; closed, intermediate and open conformations came from the same sample; A few residues of the PreScission site are left at the C-terminus after cleavage; The deposited models lack unresolved parts, and some segments are polyalanine; also called G924S …) RASSNGDLPTKADLQAQLDSLNKQKDLSAQDKLVQQDLTDTLATLDKIDRIKEETVQLRQKVAEAPEKMRQATAALTALSDVDNDEETRKILSTLSLRQLETRVAQALDDLQNAQNDLASYNSQLVSLQTQPERVQNAMYNASQQLQQIRSRLDGTDVGETALRPSQKVLMQAQQALLNAEIDQQRKSLEGNTVLQDTLQKQRDYVTANSARLEHQLQLLQEAVNSKRLTLTEKTAQEAVSPDEAARIQANPLVKQELEINQQLSQRLITATENGNQLMQQNIKVKNWLERALQSERNIKEQIAVLKGSLLLSRILYQQQQTLPSADELENMTNRIADLRLEQFEVNQQRDALFQSDAFVNKLEEGHTNEVNSEVHDALLQVVDMRRELLDQLNKQLGNQLMMAINLQINQQQLMSVSKNLKSILTQQIFWVNSNRPMDWDWIKAFPQSLKDEFKSMKITVNWQKAWPAVFIAFLAGLPLLLIAGLIHWRLGWLKAYQQKLASAVGSLRNDSQLNTPKAILIDLIRALPVCLIILAVGLILLTMQLNISELLWSFSKKLAIFWLVFGLCWKVLEKNGVAVRHFGMPEQQTSHWRRQIVRISLALLPIHFWSVVAELSPLHLMDDVLGQAMIFFNLLLIAFLVWPMCRESWRDKESHTMRLVTITVLSIIPIALMVLTATGYFYTTLRLAGRWIETVYLVIIWNLLYQTVLRGLSVAARRIAWRRALARRQNLVKEGAEGAEPPEEPTIALEQVNQQTLRITMLLMFALFGVMFWAIWSDLITVFSYLDSITLWHYNGTEAGAAVVKNVTMGSLLFAIIASMVAWALIRNLPGLLEVLVLSRLNMRQGASYAITTILNYIIIAVGAMTVFGSLGVSWDKLQWLAAALSVGLSFGLQEIFGNFVSGLIILFERPVRIGDTVTIGSFSGTVSKIRIRATTITDFDRKEVIIPNKAFVTERLINWSLTDTTTRLVIRLGVAYGSDLEKVRKVLLKAATEHPRVMHEPMPEVFFTAFGASTLDHELRLYVRELRDRSRTVDELNRTIDQLCRENDINIAFNQLEVHLHNEKGDEVTEVKRDYKGDDPTPAVG | 7 | – |
| E. coli MscK (EcMscK), full-length wild-type channel (natural protein, UniProt P77338 34-1120, looked up, E. coli mechanosensitive channel MscK, 1120 amino acids, full length, codon-optimized synthetic DNA; Homoheptamer; A few residues of the PreScission site are left at the C-terminus after cleavage; also called WT EcMscK; WT channel; not shown: GFP, C-terminal, cleaved; His10, C-terminal, cleaved) RASSNGDLPTKADLQAQLDSLNKQKDLSAQDKLVQQDLTDTLATLDKIDRIKEETVQLRQKVAEAPEKMRQATAALTALSDVDNDEETRKILSTLSLRQLETRVAQALDDLQNAQNDLASYNSQLVSLQTQPERVQNAMYNASQQLQQIRSRLDGTDVGETALRPSQKVLMQAQQALLNAEIDQQRKSLEGNTVLQDTLQKQRDYVTANSARLEHQLQLLQEAVNSKRLTLTEKTAQEAVSPDEAARIQANPLVKQELEINQQLSQRLITATENGNQLMQQNIKVKNWLERALQSERNIKEQIAVLKGSLLLSRILYQQQQTLPSADELENMTNRIADLRLEQFEVNQQRDALFQSDAFVNKLEEGHTNEVNSEVHDALLQVVDMRRELLDQLNKQLGNQLMMAINLQINQQQLMSVSKNLKSILTQQIFWVNSNRPMDWDWIKAFPQSLKDEFKSMKITVNWQKAWPAVFIAFLAGLPLLLIAGLIHWRLGWLKAYQQKLASAVGSLRNDSQLNTPKAILIDLIRALPVCLIILAVGLILLTMQLNISELLWSFSKKLAIFWLVFGLCWKVLEKNGVAVRHFGMPEQQTSHWRRQIVRISLALLPIHFWSVVAELSPLHLMDDVLGQAMIFFNLLLIAFLVWPMCRESWRDKESHTMRLVTITVLSIIPIALMVLTATGYFYTTLRLAGRWIETVYLVIIWNLLYQTVLRGLSVAARRIAWRRALARRQNLVKEGAEGAEPPEEPTIALEQVNQQTLRITMLLMFALFGVMFWAIWSDLITVFSYLDSITLWHYNGTEAGAAVVKNVTMGSLLFAIIASMVAWALIRNLPGLLEVLVLSRLNMRQGASYAITTILNYIIIAVGAMTVFGSLGVSWDKLQWLAAALSVGLGFGLQEIFGNFVSGLIILFERPVRIGDTVTIGSFSGTVSKIRIRATTITDFDRKEVIIPNKAFVTERLINWSLTDTTTRLVIRLGVAYGSDLEKVRKVLLKAATEHPRVMHEPMPEVFFTAFGASTLDHELRLYVRELRDRSRTVDELNRTIDQLCRENDINIAFNQLEVHLHNEKGDEVTEVKRDYKGDDPTPAVG | – | binds |
